Self-cleavage data for 38 variants are collected here from the RNAGym collection of RNA variant scans (doi:10.7554/elife.80360).

The labels stand for the following.
B1: Hairpin Ribozyme (parent)
chain: GUCCUCUUUCACGUGCGCGUGAAAGAGAGAAGUGAACCAGAGAAACACACGUUGUGGUAUAUUACCUGGUA

Variants of B1 are the subject of the data set. Nature of the data set: self-cleavage, relative activity (ratio to wild type); higher = more cleavage; co-transcriptional.
With GUCCUCUUUCACGUGCGCGAGAAAGAGAGAAGUGAACCUGAGAAACACACGUUGUGGUAUAUUACCUGGUA [U20A A39U], the self-cleavage stood at 0.296.
To GUCCUCUUUCACGUGCGCGAGAAAGAGAGAAGUGAACCAGAGAAACACAGGUUGUGGUAUAUUACCUGGUA [U20A C50G] belongs 0.132; to GUCCUCUUUCACGUGCGCGAGAAAGAGAGAAGUGAACCAGAGAAACACACGUUGUGGUAUAUUAUCUGGUA [U20A C65U], 0.388.
Regarding GUCCUCUUUCACGUGCGCUUGAAAGAGAGAAGUGAACCAGAGAAACACACGUUGUGGAAUAUUACCUGGUA [G19U U58A], the self-cleavage was determined as 0.607.
In the case of GUCCUCUUUCACGUGCGCGAGAAAGAGAGAAGUGAACCAUAGAAACACACGUUGUGGUAUAUUACCUGGUA [U20A G40U], the self-cleavage was determined as 0.153.
Regarding GUCCUCUUUCACGUGCGCGAGAAGGAGAGAAGUGAACCAGAGAAACACACGUUGUGGUAUAUUACCUGGUA [U20A A24G], the self-cleavage turned out to be 0.895.
To GUCCUCUUUCACGUGCGCGCGAAAGAGAGAUGUGAACCAGAGAAACACACGUUGUGGUAUAUUACCUGGUA [U20C A31U] belongs 0.188.
As for GUCCUCUUUCACGUGCGCGAGAAAGAGAGAAGUGAACCAGAGAAACACACGUUGUGGUAUAUUACCGGGUA [U20A U67G], the self-cleavage was 0.256.
GUCCUCUUUCACGUGCGCGAGAAAGGGAGAAGUGAACCAGAGAAACACACGUUGUGGUAUAUUACCUGGUA [U20A A26G]: the self-cleavage stood at 0.859.
Turning to GUCCUCUUUCACGUGCGCGAGAAAGAAAGAAGUGAACCAGAGAAACACACGUUGUGGUAUAUUACCUGGUA [U20A G27A], the self-cleavage came out at 0.385.
In the case of GUCCUCUUUCACGUGCGCGAGAAAGACAGAAGUGAACCAGAGAAACACACGUUGUGGUAUAUUACCUGGUA [U20A G27C] it was 0.175; in that of GUCCUCUUUCACGUGCGCUUGAAAGAGAGAAGUGAACCAGAGAAACACACGUUGUGGUAUAUGACCUGGUA [G19U U63G], 0.205.
Regarding GUCCUCUUUCACGUGCGCGCGAAAGAGAGAAGUGAACCAGAGAAACACACGUUGUGGUAUAUUACCUGGUA [U20C], the self-cleavage turned out to be 0.963.
In the case of GUCCUCUUUCACGUGCGCGAGAAAGAGAGAAGUGAACCAGAGAAACACACGUUGUGGUAUAUUACCUGGUA [U20A] it was 0.869.
To GUCCUCUUUCACGUGCGCGAGAAAGAGAGAAGUGAACCAGAGAAACACACGUUGUGGUAGAUUACCUGGUA [U20A U60G] belongs 0.592.
In the case of GUCCUCUUUCACGUGCGCGCGCAAGAGAGAAGUGAACCAGAGAAACACACGUUGUGGUAUAUUACCUGGUA [U20C A22C] it was 0.482; in that of GUCCUCUUUCACGUGCGCGAGAAAGAGAGAAGUGAACCAGAGAAACACACGUUGUGGUAUCUUACCUGGUA [U20A A61C], 0.156.
In the case of GUCCUCUUUCACGUGCGCUCGAAAGAGAGAAGUGAACCAGAGAAACACACGUUGUGGUAUAUUACCUGGUA [G19U U20C], the self-cleavage amounted to 0.731.
To GUCCUCUUUCACGUGCGCGAGAAAGAGAGAAGUGAACCAGAGAAACACACGUUGUGGUAUAUUACCUGGAA [U20A U70A] belongs 0.784.
Regarding GUCCUCUUUCACGUGCGCGAGAAAGAGAGAAGUGAACCAGAGAAACACACGUUGUGGUAUAUUACCUGGGA [U20A U70G], the self-cleavage worked out at 0.651.
To GUCCUCUUUCACGUGCGCUUGAAAGAGAGAAGUGAACCAGAGAAACACACGUUGCGGUAUAUUACCUGGUA [G19U U55C] belongs 0.226; to GUCCUCUUUCACGUGCGCGCGAAAGAGAGAAGUGAUCCAGAGAAACACACGUUGUGGUAUAUUACCUGGUA [U20C A36U], 0.529; to GUCCUCUUUCACGUGCGCGCGAAAGAGAGAAGUGACCCAGAGAAACACACGUUGUGGUAUAUUACCUGGUA [U20C A36C], 0.526.
For GUCCUCUUUCACGUGCGCGAGAAAGAGAGAAGUGAACCAGAGAAACACACGCUGUGGUAUAUUACCUGGUA [U20A U52C], the self-cleavage was determined as 0.96.
In the case of GUCCUCUUUCACGUGCGCGAGAAAGAGAGAAGUGAACCAGAGAAACACACGAUGUGGUAUAUUACCUGGUA [U20A U52A] it was 0.844.
As for GUCCUCUUUCACGUGCGCGAGAAAGAGAGAAGUGAACCAGAGCAACACACGUUGUGGUAUAUUACCUGGUA [U20A A43C], the self-cleavage came out at 0.0739.
To GUCCUCUUUCACGUGCGCGAGAAAGAGAGAAGUGAACCAGAGAAACACACGUUGUGGUAUAUUACCUGAUA [U20A G69A] belongs 0.337; to GUCCUCUUUCACGUGCGCGAGAAAGAGAGAAGUGAAUCAGAGAAACACACGUUGUGGUAUAUUACCUGGUA [U20A C37U], 0.511.
For the variant GUCCUCUUUCACGUGCGCGAGAAAGAGAGAAGUGAACUAGAGAAACACACGUUGUGGUAUAUUACCUGGUA [U20A C38U], the self-cleavage was found to be 0.45.
In the case of GUCCUCUUUCACGUGCGCGAGAAAGAGAGAAGUGAACGAGAGAAACACACGUUGUGGUAUAUUACCUGGUA [U20A C38G] it was 0.19; in that of GUCCUCUUUCACGUGCGCGAGAAAGAGAGAAGUGAACCAGAGAAACACACGUUGUGGCAUAUUACCUGGUA [U20A U58C], 0.847.
GUCCUCUUUCACGUGCGCGAGAAAGAGAGAGGUGAACCAGAGAAACACACGUUGUGGUAUAUUACCUGGUA [U20A A31G]: the self-cleavage came out at 0.466.
In the case of GUCCUCUUUCACGUGCGCUUGAAAGAGAGAAGUGAACCAGAGAAACACACGUUGUGGUAUAUUACCUGCUA [G19U G69C] it was 0.269; in that of GUCCUCUUUCACGUGCGCGAGAAAGAGAGAAGGGAACCAGAGAAACACACGUUGUGGUAUAUUACCUGGUA [U20A U33G], 0.183; in that of GUCCUCUUUCACGUGCGCGAGAAAGAGAGAAGAGAACCAGAGAAACACACGUUGUGGUAUAUUACCUGGUA [U20A U33A], 0.114.
To GUCCUCUUUCACGUGCGCGAGAAAGAGAGAAGUGAACCAGAGAAACACACGUUGUGUUAUAUUACCUGGUA [U20A G57U] belongs 0.259; to GUCCUCUUUCACGUGCGCGCGAACGAGAGAAGUGAACCAGAGAAACACACGUUGUGGUAUAUUACCUGGUA [U20C A24C], 0.612; to GUCCUCUUUCACGUGCGCUUGAAAGAGAGAAGUGAACCAGAGAAACACACGUUGUGGUACAUUACCUGGUA [G19U U60C], 1.2.
